The target of this assay is T1, purified C3b (UniProt P01024 23-667; P01024 749-1663).
T1 construct: complement C3 beta chain, as in C3b; complement C3b alpha' chain (C3 alpha chain without C3a); also called C3b fragment; source: bought: Merck
Description: SPR; ProteOn XPR36; recombinant FHR-5 variants amine-coupled on a GLC chip at 4,200-4,600 RU; C3b in serial dilutions as analyte in DPBS with 0.005% Tween-20, 50 µl/min; ovalbumin channel subtracted; bivalent analyte model, KD = kd/ka. Conditions: both partners purified.

T1 sequence (P01024 23-667, chain 1 of 2): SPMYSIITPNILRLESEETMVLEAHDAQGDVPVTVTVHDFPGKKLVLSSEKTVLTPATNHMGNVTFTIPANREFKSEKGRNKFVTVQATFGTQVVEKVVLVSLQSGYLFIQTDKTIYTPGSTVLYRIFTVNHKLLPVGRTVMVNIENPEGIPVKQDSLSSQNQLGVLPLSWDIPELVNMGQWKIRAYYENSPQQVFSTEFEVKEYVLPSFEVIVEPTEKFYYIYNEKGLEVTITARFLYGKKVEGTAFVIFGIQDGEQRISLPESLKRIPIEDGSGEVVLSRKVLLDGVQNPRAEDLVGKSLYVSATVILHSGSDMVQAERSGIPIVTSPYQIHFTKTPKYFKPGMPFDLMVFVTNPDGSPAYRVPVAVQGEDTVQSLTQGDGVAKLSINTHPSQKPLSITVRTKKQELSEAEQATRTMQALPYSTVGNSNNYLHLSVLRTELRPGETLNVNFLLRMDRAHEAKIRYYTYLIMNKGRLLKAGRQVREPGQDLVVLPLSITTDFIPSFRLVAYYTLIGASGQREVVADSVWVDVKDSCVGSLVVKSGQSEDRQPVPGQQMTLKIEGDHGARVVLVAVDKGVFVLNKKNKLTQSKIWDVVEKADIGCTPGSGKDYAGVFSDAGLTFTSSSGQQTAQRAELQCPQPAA
T1 sequence (P01024 749-1663, chain 2 of 2): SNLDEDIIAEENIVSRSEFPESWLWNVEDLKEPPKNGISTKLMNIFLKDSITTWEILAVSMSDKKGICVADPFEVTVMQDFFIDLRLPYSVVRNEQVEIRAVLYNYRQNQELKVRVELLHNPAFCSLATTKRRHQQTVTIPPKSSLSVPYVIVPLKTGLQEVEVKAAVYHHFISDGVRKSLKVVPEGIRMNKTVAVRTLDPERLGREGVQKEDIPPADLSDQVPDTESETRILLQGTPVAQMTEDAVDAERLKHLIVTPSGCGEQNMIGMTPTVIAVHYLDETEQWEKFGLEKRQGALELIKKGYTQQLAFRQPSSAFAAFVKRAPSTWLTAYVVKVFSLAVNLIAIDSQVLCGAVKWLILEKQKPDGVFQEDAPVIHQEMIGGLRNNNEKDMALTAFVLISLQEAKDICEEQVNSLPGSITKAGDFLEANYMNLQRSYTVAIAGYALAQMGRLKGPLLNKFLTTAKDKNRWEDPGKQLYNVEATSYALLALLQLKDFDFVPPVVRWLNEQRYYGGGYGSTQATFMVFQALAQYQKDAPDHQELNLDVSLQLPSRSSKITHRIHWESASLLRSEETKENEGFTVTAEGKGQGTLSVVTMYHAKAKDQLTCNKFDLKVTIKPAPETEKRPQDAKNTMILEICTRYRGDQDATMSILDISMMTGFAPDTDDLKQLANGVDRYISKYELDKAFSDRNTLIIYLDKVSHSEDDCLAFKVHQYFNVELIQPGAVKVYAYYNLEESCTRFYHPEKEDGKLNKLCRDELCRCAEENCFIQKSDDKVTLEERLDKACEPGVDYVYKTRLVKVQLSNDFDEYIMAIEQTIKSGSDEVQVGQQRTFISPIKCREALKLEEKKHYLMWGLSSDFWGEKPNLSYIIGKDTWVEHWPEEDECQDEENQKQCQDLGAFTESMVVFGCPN

B1: recombinant FHR-5 G278S (natural protein, human, UniProt Q9BXR6 19-569, looked up)
chain: EGTLCDFPKIHHGFLYDEEDYNPFSQVPTGEVFYYSCEYNFVSPSKSFWTRITCTEEGWSPTPKCLRMCSFPFVKNGHSESSGLIHLEGDTVQIICNTGYSLQNNEKNISCVERGWSTPPICSFTKGECHVPILEANVDAQPKKESYKVGDVLKFSCRKNLIRVGSDSVQCYQFGWSPNFPTCKGQVRSCGPPPQLSNGEVKEIRKEEYGHNEVVEYDCNPNFIINGPKKIQCVDGEWTTLPTCVEQVKTCGYIPELEYSYVQPSVPPYQHGVSVEVNCRNEYAMIGNNMITCINGIWTELPMCVATHQLKRCKIAGVNIKTLLKLSGKEFNHNSRIRYRCSDIFRYRHSVCINGKWNPEVDCTEKREQFCPPPPQIPNAQNMTTTVNYQDGEKVAVLCKENYLLPEAKEIVCKDGRWQSLPRCVESTAYCGPPPSINNGDTTSFPLSVYPPGSTVTYRCQSFYKLQGSVTVTCRNKQWSEPPRCLDPCVVSEENMNKNNIQLKWRNDGKLYAKTGDAVEFQCKFPHKAMISSPPFRAICQEGKFEYPICE
notes: complement Factor H-related protein 5 (FHR-5), human; amplified from the wtCFHR5 vector with a mutagenic primer; numbered from the ATG translation initiation site; Same construct as m1 with the patient variation G278S
B1: the Kd is 20.5 µM.

B2: recombinant FHR-5 R356H (natural protein, human, UniProt Q9BXR6 19-569, looked up)
chain: EGTLCDFPKIHHGFLYDEEDYNPFSQVPTGEVFYYSCEYNFVSPSKSFWTRITCTEEGWSPTPKCLRMCSFPFVKNGHSESSGLIHLEGDTVQIICNTGYSLQNNEKNISCVERGWSTPPICSFTKGECHVPILEANVDAQPKKESYKVGDVLKFSCRKNLIRVGSDSVQCYQFGWSPNFPTCKGQVRSCGPPPQLSNGEVKEIRKEEYGHNEVVEYDCNPNFIINGPKKIQCVDGEWTTLPTCVEQVKTCGYIPELEYGYVQPSVPPYQHGVSVEVNCRNEYAMIGNNMITCINGIWTELPMCVATHQLKRCKIAGVNIKTLLKLSGKEFNHNSRIHYRCSDIFRYRHSVCINGKWNPEVDCTEKREQFCPPPPQIPNAQNMTTTVNYQDGEKVAVLCKENYLLPEAKEIVCKDGRWQSLPRCVESTAYCGPPPSINNGDTTSFPLSVYPPGSTVTYRCQSFYKLQGSVTVTCRNKQWSEPPRCLDPCVVSEENMNKNNIQLKWRNDGKLYAKTGDAVEFQCKFPHKAMISSPPFRAICQEGKFEYPICE
notes: complement Factor H-related protein 5 (FHR-5), human; amplified from the wtCFHR5 vector with a mutagenic primer; histidine instead of arginine at position 356, a variation found in patients; numbered from the ATG translation initiation site; Same construct as m1 with the patient variation R356H
For B2, the Kd came to 5.6 µM.

B3: recombinant wild-type Factor H-related protein 5 (FHR-5WT) (natural protein, human, UniProt Q9BXR6 19-569, looked up)
chain: EGTLCDFPKIHHGFLYDEEDYNPFSQVPTGEVFYYSCEYNFVSPSKSFWTRITCTEEGWSPTPKCLRMCSFPFVKNGHSESSGLIHLEGDTVQIICNTGYSLQNNEKNISCVERGWSTPPICSFTKGECHVPILEANVDAQPKKESYKVGDVLKFSCRKNLIRVGSDSVQCYQFGWSPNFPTCKGQVRSCGPPPQLSNGEVKEIRKEEYGHNEVVEYDCNPNFIINGPKKIQCVDGEWTTLPTCVEQVKTCGYIPELEYGYVQPSVPPYQHGVSVEVNCRNEYAMIGNNMITCINGIWTELPMCVATHQLKRCKIAGVNIKTLLKLSGKEFNHNSRIRYRCSDIFRYRHSVCINGKWNPEVDCTEKREQFCPPPPQIPNAQNMTTTVNYQDGEKVAVLCKENYLLPEAKEIVCKDGRWQSLPRCVESTAYCGPPPSINNGDTTSFPLSVYPPGSTVTYRCQSFYKLQGSVTVTCRNKQWSEPPRCLDPCVVSEENMNKNNIQLKWRNDGKLYAKTGDAVEFQCKFPHKAMISSPPFRAICQEGKFEYPICE
notes: complement Factor H-related protein 5 (FHR-5), human; variations are numbered from the ATG translation initiation site; Secreted into the Sf9 supernatant; also called wild-type FHR-5; wtCFHR5
In the case of B3, the Kd was found to be 5.26 µM.

Source of the values: paper PMC8461307, “FHR-5 Serum Levels and CFHR5 Genetic Variations in Patients With Immune Complex-Mediated Membranoproliferative Glomerulonephritis and C3-Glomerulopathy” (Frontiers in Immunology, 2021).
